Values quoted from earlier work, collected in publication PMC7248566.

Molecular target: Fibrinogen beta (Fgβ) (Homo sapiens) (UniProt P02675)

For SdrG (from UniProt Q9KI13), the Kd is given as 350 nM.
